Test results published in US20240029824A1 (University of Washington, published 2024).
Positions count from the first letter of the chain named.

Key:
[1] = biological target: T1, DHT03_2arm_A21/B62/C chain B; assay: co-expression, SEC, native MS, SAXS; chains of one ABC heterotrimer
T1 chain: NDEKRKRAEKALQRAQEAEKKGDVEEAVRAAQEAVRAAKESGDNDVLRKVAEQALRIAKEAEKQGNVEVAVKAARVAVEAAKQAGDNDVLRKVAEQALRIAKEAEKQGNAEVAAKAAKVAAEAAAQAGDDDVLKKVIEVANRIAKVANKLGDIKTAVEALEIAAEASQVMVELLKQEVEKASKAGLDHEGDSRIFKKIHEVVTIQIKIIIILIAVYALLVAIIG

[2] = biological target: T2, DHT03_2arm_A21/Bt18/C chain B; assay: as above
T2 chain: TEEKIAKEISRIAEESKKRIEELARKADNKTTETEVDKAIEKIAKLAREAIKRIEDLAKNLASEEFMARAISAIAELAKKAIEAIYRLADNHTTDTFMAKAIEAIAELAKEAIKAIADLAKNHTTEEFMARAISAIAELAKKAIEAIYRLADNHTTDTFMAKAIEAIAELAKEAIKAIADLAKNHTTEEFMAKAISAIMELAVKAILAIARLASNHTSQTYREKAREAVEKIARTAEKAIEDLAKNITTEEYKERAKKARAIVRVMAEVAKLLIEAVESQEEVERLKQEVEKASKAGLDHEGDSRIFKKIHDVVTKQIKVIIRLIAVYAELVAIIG

[3] = biological target: T3, DHT03 chain C (SEQ ID NO: 65); assay: as above
T3 chain: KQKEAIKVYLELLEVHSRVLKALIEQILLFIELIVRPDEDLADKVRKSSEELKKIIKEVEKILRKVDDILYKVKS

[4] = biological target: T4, DHT03_2arm_A21/B14/C chain B; assay: as above
T4 chain: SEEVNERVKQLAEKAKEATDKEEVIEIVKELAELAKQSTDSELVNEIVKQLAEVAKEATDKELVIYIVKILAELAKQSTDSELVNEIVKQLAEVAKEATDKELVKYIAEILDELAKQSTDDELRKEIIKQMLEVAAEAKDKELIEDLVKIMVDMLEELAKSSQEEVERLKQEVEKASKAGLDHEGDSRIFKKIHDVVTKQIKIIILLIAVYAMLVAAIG

[5] = biological target: T5, DHT03_3arm chain B (B21, SEQ ID NO: 73); assay: individually purified chains mixed 1:1:1, heat annealed, SEC
T5 construct: separately expressed with an N- or C-terminal 6xHis-tag
T5 chain: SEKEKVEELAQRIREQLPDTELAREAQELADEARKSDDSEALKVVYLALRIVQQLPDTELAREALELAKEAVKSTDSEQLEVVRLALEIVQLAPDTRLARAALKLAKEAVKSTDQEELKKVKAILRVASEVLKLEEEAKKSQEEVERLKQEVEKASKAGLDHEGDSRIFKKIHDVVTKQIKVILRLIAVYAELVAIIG
Description: (§1) To test this idea, an equimolar amount of individually purified A, B, and C of DHT03_2arm_A21/B21/C were mixed together and run through an annealing protocol (see Methods) to allow these interfaces to reassemble in the presence of all components. A monodisperse SEC peak was observed belonging to the ABC heterotrimer state as confirmed by overlap with its SEC co-expressed tricistronic version (FIG. 3d). To explore the use of this approach for building, four different repeat protein fusions to chain C were annealed in the same manner and all four 3-arm heterotrimers were successfully reconstituted. […] The successful reconstitution of these ABC assemblies, following the independent expression and purification of each chain and explicit mixing at a 1:1:1 ratio, enables their use in conjunction with other de novo proteins to mediate the specific assembly of multi-component assemblies. Independent expression also has considerable advantages over tricistronic expression from a gene synthesis perspective as DNA becomes much more difficult and expensive to synthesize with increasing construct size.
(§2) To test whether the DHT03 components could properly assemble in the presence of other helical hairpin containing chains, as would be the case for more complex assemblies, we chose DHD131, a designed helical hairpin unit heterodimer containing buried hydrogen bond networks¹². […] We evaluated simultaneous reconstitution of DHD131 and DHT03_3arm_A21/B21/C82, since the size difference between the two constructs (if correctly assembled) should be detected by SEC. We separately expressed and individually purified the two chains of the heterodimer and the three chains of the heterotrimer, mixed them at a 1:1:1:1:1 ratio, and carried out annealing and SEC as described above.

[6] = biological target: T6, DHT03_3arm_A21/B21/C62 chain C; assay: as above
T6 chain: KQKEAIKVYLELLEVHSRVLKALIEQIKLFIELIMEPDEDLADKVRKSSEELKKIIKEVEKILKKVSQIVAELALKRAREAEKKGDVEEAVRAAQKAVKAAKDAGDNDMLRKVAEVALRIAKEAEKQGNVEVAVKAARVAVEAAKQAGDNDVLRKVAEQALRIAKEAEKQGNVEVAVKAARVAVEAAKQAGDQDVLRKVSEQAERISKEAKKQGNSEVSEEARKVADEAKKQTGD
Description: as §1, §2

[7] = biological target: T7, DHT03_3arm_A21/B21/C53 chain C; assay: as above
T7 chain: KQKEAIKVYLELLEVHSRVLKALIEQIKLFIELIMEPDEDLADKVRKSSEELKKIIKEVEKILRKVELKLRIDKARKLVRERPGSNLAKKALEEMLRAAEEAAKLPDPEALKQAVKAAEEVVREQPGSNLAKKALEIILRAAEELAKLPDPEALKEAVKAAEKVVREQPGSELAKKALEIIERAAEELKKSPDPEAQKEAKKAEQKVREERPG
Description: as §1, §2

[8] = biological target: T8, DHT03_3arm_A21/B21/C59 chain C; assay: as above
T8 chain: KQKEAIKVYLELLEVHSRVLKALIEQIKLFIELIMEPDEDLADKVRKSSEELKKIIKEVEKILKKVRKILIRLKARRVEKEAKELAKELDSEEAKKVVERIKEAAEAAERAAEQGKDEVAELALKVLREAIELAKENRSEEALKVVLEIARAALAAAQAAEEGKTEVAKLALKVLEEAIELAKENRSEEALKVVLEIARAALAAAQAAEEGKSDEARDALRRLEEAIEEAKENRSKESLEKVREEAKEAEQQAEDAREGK
Description: as §1, §2

[9] = biological target: T9, DHT03_3arm_A21/B21/C82 chain C; assay: as above
T9 construct: also called chain C DHR82 fusion; chain C of C3-DHT03-01-DHR82 and C4-DHT03-01-DHR82
T9 chain: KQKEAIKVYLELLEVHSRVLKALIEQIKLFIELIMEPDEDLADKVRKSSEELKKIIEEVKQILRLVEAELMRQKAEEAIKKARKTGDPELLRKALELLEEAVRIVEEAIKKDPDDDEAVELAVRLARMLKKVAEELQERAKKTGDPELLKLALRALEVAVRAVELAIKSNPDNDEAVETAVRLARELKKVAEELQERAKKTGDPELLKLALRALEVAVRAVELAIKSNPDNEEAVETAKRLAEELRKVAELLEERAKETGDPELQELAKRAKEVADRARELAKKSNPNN
Description: as §1, §2

Measured: binding result

B1: DHT03 A21 fusion chain A (SEQ ID NO: 63) (designed binder)
chain: SEKEKVEELAQRIREQLPDTELAREAQELADEARKSDDSEALKVVYLALRIVQQLPDTELAREALELAKEAVKSTDSEALKVVYLALRIVQQLPDTELARLALELAKKAVEMTAQEVLEIAKAALKAAQAFPNTELAELMLRLAEVAARVMKELERNDEEIKKSDELDDESLLEDIVELLKEIIKLWKILVEVSDVMLKLIS
binds: [1] | [2] | [3]

B2: DHT03 A21 fusion chain A (SEQ ID NO: 66) (designed binder)
chain: B1 chain with E119A
binds: [4]

B3: DHT03_3arm chain A (A21, SEQ ID NO: 72) (designed binder)
chain: B1 chain with E119A, E170A, E174A, E178R, K181A
notes: separately expressed with an N- or C-terminal 6xHis-tag
binds: [5] | [6] | [7] | [8] | [9]
